The values below come from publication PMC8003079, “Virus-Like Particles Produced Using the Brome Mosaic Virus Recombinant Capsid Protein Expressed in a Bacterial System” (International Journal of Molecular Sciences, 2021).

Data set [1] deals with the molecule itself. Nature of the data set: cross-linking; 5 mM DSS, rCP in MST buffer pH 7.5; 5, 10, 15 and 30 min; SDS-PAGE.
Data set [2] deals with the molecule itself. Kind of data set: MST; labelled rCP (RED-NHS 647, 50 nM) titrated with unlabelled rCP (from 15 uM); 50 mM Tris pH 7.5, 5 mM MgCl2, 1000 mM NaCl; step of self-association not stated.
Data set [3] deals with the molecule itself. Kind of data set: MST; labelled rCP (RED-NHS 647, 50 nM) titrated with unlabelled rCP (from 15 uM); 50 mM Tris pH 7.5, 5 mM MgCl2, 300 mM NaCl; step of self-association not stated.
Data set [4] deals with the molecule itself. Kind of data set: MST; labelled rCP (RED-NHS 647, 50 nM) titrated with unlabelled rCP (from 15 uM); 50 mM Tris pH 6.8, 5 mM MgCl2, 150 mM NaCl; step of self-association not stated.
Data set [5] concerns the molecule itself. Kind of data set: MST; labelled rCP (RED-NHS 647, 50 nM) titrated with unlabelled rCP (from 15 uM); 50 mM Tris pH 7.5, 5 mM MgCl2, 600 mM NaCl; step of self-association not stated.
Data set [6] concerns the molecule itself. Nature of the data set: MST; labelled rCP (RED-NHS 647, 50 nM) titrated with unlabelled rCP (from 15 uM); 50 mM Tris pH 8.5, 5 mM MgCl2, 150 mM NaCl; step of self-association not stated.
Data set [7] deals with the molecule itself. Nature of the data set: MST; labelled rCP (RED-NHS 647, 50 nM) titrated with unlabelled rCP (from 15 uM); 50 mM Tris pH 7.5, 5 mM MgCl2, 150 mM NaCl; step of self-association not stated.
Data set [8] concerns the molecule itself. Kind of data set: cryo-TEM imaging; empty VLPs assembled without cargo by two-step dialysis; vitrified samples, 120 kV.

B1: recombinant brome mosaic virus (BMV) capsid protein (natural protein)
chain: MSTSGTGKMTRAQRRAAARRNRWTARVQPVIVEPLAAGQGKAIKAIAGYSISKWEASSDAITAKATNAMSITLPHELSSEKNKELKVGRVLLWLGLLPSVAGRIKACVAEKQAQAEAAFQVALAVADSSKEVVAAMYTDAFRGATLGDLLNLQIYLYASEAVPAKAVVVHLEVEHVRPTFDDFFTPVYR
notes: brome mosaic virus capsid (coat) protein; In the MST assay one copy was labelled with Monolith NT Protein Labeling Kit RED-NHS 647 and titrated with unlabelled rCP; also called rCP; CP; source: E. coli Rosetta 2(DE3)pLysS, purified (Ni-NTA, TEV digestion, second Ni-NTA); not shown: His tag (inferred from Ni-NTA purification; vector pMCSG48), N-terminal, cleaved
Take B1: in data set [1], the “stoichiometry N” value stood at 2. Moreover, the Kd in data set [2] was 111 nM; in data set [3], 62 nM; in data set [4], 6.8 nM; in data set [5], 72 nM; in data set [6], 175 nM; in data set [7], 35 nM.

B2: mutated BMV capsid protein (L123D and F183T) (natural protein, brome mosaic virus)
chain: MSTSGTGKMTRAQRRAAARRNRWTARVQPVIVEPLAAGQGKAIKAIAGYSISKWEASSDAITAKATNAMSITLPHELSSEKNKELKVGRVLLWLGLLPSVAGRIKACVAEKQAQAEAAFQVADAVADSSKEVVAAMYTDAFRGATLGDLLNLQIYLYASEAVPAKAVVVHLEVEHVRPTFDDTFTPVYR
notes: brome mosaic virus capsid (coat) protein with two designed mutations; also called rCP mutant; mutated rCP; source: E. coli Rosetta 2(DE3)pLysS, purified as the wild-type BMV CP (Ni-NTA, TEV digestion, second Ni-NTA); not shown: His tag (inferred from Ni-NTA purification; vector pMCSG48), N-terminal, cleaved
Take B2: in data set [8], the binding result is on record as “binds”.
